{"source": "paper PMC1298937", "about": "“A Novel Endogenous Inhibitor of the Secreted Streptococcal NAD-Glycohydrolase” (PLoS Pathogens, 2005)", "binders": {"B1": {"name": "Immunity factor for SPN (IFS) with C-terminal c-myc and 6X-His tags (IFS-H), expressed from pMAM3.19 (natural protein)", "chain": "MYKVPKGLEHYQKMFQKEVTVNDLKKYLIGSDKEYRITRRDSYMGDISDPEVILEYGVYPAFIKGYTQLKANIEEALLEMSNSGQALDIYQAVQTLNAENMLLNYYESLPFYLNRQSILANITKALKDAHIREAMAHYKLGEFAHYQDTMLDMVERTIETF", "notes": "source: E. coli TOP10(pMAM3.19), arabinose-induced: cytoplasmic extract; purified (TALON, Resource Q); not shown: c-myc, C-terminal, kept; 6X-His, C-terminal, kept"}}, "key": {"[1]": {"target": "T1, SPN secreted by S. pyogenes JRS4 (culture supernatant) (Streptococcus pyogenes strain JRS4 …)", "T1 chain": "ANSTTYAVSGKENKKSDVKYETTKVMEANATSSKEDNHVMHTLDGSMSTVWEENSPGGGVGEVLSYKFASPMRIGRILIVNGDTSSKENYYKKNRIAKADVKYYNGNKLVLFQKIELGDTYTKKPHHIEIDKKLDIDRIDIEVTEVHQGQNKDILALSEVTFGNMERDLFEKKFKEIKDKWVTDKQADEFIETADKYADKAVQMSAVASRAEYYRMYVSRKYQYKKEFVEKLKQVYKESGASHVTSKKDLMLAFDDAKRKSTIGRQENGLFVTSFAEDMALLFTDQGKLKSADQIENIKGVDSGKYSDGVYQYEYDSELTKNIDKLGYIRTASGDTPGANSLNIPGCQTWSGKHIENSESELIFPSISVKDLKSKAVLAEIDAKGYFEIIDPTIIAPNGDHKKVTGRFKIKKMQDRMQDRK", "experiment": "enzyme inhibition kinetics (competitive model); apparent constant; purified IFS (up to 2.3 nM) with SPN from JRS4 culture supernatant (0.125 U/ml) and varying beta-NAD+ (up to 1.2 mM) in PBS at 37 C; fluorescence of residual beta-NAD+; simultaneous fit", "conditions": "one partner purified"}, "[2]": {"target": "6X-His-tagged SPN (SPN-H) expressed from pMAM3.18 (Streptococcus pyogenes strain JRS4)", "experiment": "SEC + other: densitometry of SDS-PAGE; SPN-IFS complex assembled in vivo and purified from the cytoplasm of E. coli TOP10(pMAM3.18); Superdex 75 HR 10/30, 20 mM Tris pH 8.5, 100 mM NaCl; peak fractions on Coomassie-stained SDS-PAGE compared with known concentrations of purified SPN and IFS"}}, "data": [{"binder": "B1", "values": [{"measurement": "Ki", "setting": "[1]", "result": 2, "unit": "nM"}, {"measurement": "stoichiometry N", "setting": "[2]", "result": 1}]}]}
